Where no end group is shown, it is not given here. [ ]: non-standard residue; d: D form.
B1: SAA: Serum amyloid A, multi-functional apolipoprotein, 12- to 14-kDa, SEQ ID NO:19 (protein, listed as Homo sapiens)
chain: MKLLTGLVFCSLVLGVSSRSFFSFLGEAFDGARDMWRAYSDMREANYIGSDKYFHARGNYDAAKRGPGGVWAAEAISDARENIQRFFGHGAEDSLADQAANEWGRSGKDPNHFRPAGLPEKY

Key:
[1] = tested on: RA FLS; assay: Intracellular Ca2+ measurement (Fluo3-AM) in RA FLS; format: cell-based, human
Procedure: The isolated FLS were incubated with Fluo3-AM working solution, containing 0.03% plutonic F-127 (the final concentration of Fluo3-AM was 20 μmol·L^−1) for 1 h at 37° C. After incubation, the cells were washed three times with normal or Na^+- and K^+-free Tyrode's solution, at 25° C. in order to remove the extracellular Fluo3-AM. Fluo3-AM fluorescence in the cells was elicited at 488 nm with a high-power Ar^+ laser, and the emission bands were detected at 530 nm with a photomultiplier. The fluorescence signal was detected using a confocal laser scanning system (Biorad Lasersharp MRA2, Oxfordshire, UK), equipped with a Nikon E-600 Eclipse microscope. The fluorescence intensity (FI) was measured both prior to (FI0) and after (FI) the addition of serum amyloid A (SAA) or phorbol-12-myristate-13-acetate (PMA) to either the normal the Na^+- and K^+-free Tyrode's solution. The change in [Ca^2+]i, was expressed in terms of the (FI−FI0)/FI0 ratio. A total of 50-120 images were scanned in each cell.

[2] = tested on: RA FLS; assay: Cell proliferation assay ([3H]-thymidine incorporation, cell counts) in RA FLS; format: cell-based, human; settings: 72 h
Procedure: (§1) Fibroblast-like synoviocytes (FLS) were prepared from synovial samples obtained from patients suffering from RA and osteoarthritis (OA), all of whom were also undergoing total joint replacement surgery. The FLS were isolated from the synovial tissues in accordance with a previously described procedure (Cho, C. S., M. L. Cho, S. Y. Min, W. U. Kim, D. J. Min, S. S. Lee, S. H. Park, J. Choe, and H. Y. Kim. 2000. CD40 engagement on synovial fibroblast up-regulates production of vascular endothelial growth factor. J. Immunol. 164: 5055-5061).
(§2) In brief, fresh synovial tissues were minced into 2- to 3-mm pieces, then treated for 4 h with 4 mg/ml type I collagenase (Worthington Biochemical), and maintained in Dulbecco's Modified Eagle's Medium (DMEM) containing 10% FBS at 37° C. in an atmosphere containing 5% CO2. […] MH7A cells, the immortalized synoviocytes that harbor the SV40 T antigen, were grown in DMEM supplemented with 10% FBS, as previously described (Miyazawa, K, A. Mori, and H. Okudaira. 1998. Establishment and characterization of a novel human rheumatoid fibroblast-like synoviocyte line, MH7A, immortalized with SV40T antigen. J. Biochem. 124: 1153-1162), and then employed in some of the experiments. Human umbilical vein endothelial cells (HUVECs) were isolated from fresh human umbilical cords via collagenase (Worthington Biochemical) digestion, and then maintained in 20% FBS-containing M-199 medium (Sigma, St. Louis, Mo.), as previously described. All HUVECs were used after no more than five passages.
(§3) The RA FLS, OA FLS, and HUVECs were plated onto 24-well culture dishes at a density of 2×10^4 cells/well, and then permitted to attach overnight. After 24 h of serum starvation, the cells were treated for 72 h with a variety of mitogens. [^3H]-thymidine (1 μCi) was added to each of the wells prior to the final 6 h of incubation. Cell growth was also evaluated via cell counts. Control and mitogen-treated cells were harvested by trypsinization, and the number of cells was determined with a hemocytometer, under ×100 magnification.

[3] = tested on: RA FLS; assay: Western blot analysis of signaling molecules in RA FLS; format: cell-based, human; settings: for time of peak cyclin D1 expression: SAA 3 μM or WKYMVm 10 nM
Procedure: RA FLS were incubated for 24 h in DMEM without FBS, and then SAA (SEQ ID NO:19) (3 μM) was added to RA-FLS for the indicated times. The treated RA-FLS was then washed twice in phosphate-buffered saline (PBS), dissolved in sample buffer (50 mM Tris-HCl, 100 mM NaCl, 0.1% sodium dodecyl sulfate (SDS), 1% NP-40, 50 mM NaF, 1 mM Na3VO4, 1 μg/ml aprotinin, 1 μg/ml pepstatin, and 1 μg/ml leupeptin), boiled, separated via SDS-polyacrylamide gel electrophoresis, and transferred to nitrocellulose membranes. After immunoblot analysis with phospho-ERK1/2 (Thr 202/Tyr 204), phospho-Akt (Ser 473), phospho-STAT3 (Tyr 705), Cylin D1, or Bcl-2 antibodies, the membranes were stripped and re-incubated with anti-Actin antibody in order to detect total protein amounts.

[4] = tested on: C57BL/6 mice; assay: Mouse Matrigel plug assay; format: in vivo; settings: 7 days; for vessels in Matrigel (stained sections): SAA 80 μg or WKYMVm 1 μg
Procedure: C57BL/6 mice (7 weeks of age) were given s.c. injections of 500 μl of Matrigel containing PBS, SAA (SEQ ID NO:19) (80 μg), or WKYMVm (SEQ ID NO:5) (1 μg). After 7 days, the skins of the mice were pulled back to expose the Matrigel plugs, which remained intact. After the noting and photographing of any quantitative differences, hemoglobin levels were measured via the Drabkin method, using a Drabkin reagent kit 525 (Sigma) for the quantitative assessment of blood vessel formation. The hemoglobin concentration was calculated from the parallel assay of a known amount of hemoglobin. The matrigel plugs were fixed in 4% formalin, embedded with paraffin, and stained using hematoxylin and eosin.

[5] = tested on: OA FLS; assay: Cell proliferation assay ([3H]-thymidine incorporation, cell counts) in OA FLS; format: cell-based, human; settings: 72 h
Procedure: as §1, §2, §3

[6] = tested on: RA FLS; assay: Apoptosis assay (MTT, DNA fragmentation ELISA) in RA FLS; format: cell-based, human; settings: for serum starvation-induced apoptosis (MTT assay, DNA fragmentation ELISA): 72 h
Procedure: Synoviocyte apoptosis was induced via 3 days of serum deprivation, or by treating the cells for 12 h with either SNP (0.7 mM) or anti-Fas IgM (0.7 μg/ml) plus cyclohexamide (CHX; 1 μg/ml). The degree of apoptosis was then evaluated via MTT assay and ELISA for DNA fragmentation. In the MTT assay, FLS were seeded in 24-well culture plates at a density of 2×10^4 cells/well. After 96 h of incubation with SAA (SEQ ID NO:19) or media alone, MTT solution was added to each of the wells, and then incubated for 2 additional hours. The reaction was halted via the removal of MTT. Thereafter, DMSO (200 μL) was added in order to solubilize the formazan crystals. The plates were then subjected to 5 minutes of gentle shaking in order to ensure that the crystals had dissolved completely, and the absorbance was read at 540 nm with a microplate reader. The cellular DNA fragmentation assay was conducted using an ELISA kit (Roche Applied Science), based on the quantitative sandwich ELISA principle, using two mouse monoclonal antibodies (Roche Applied Science) targeted against DNA and 5-bromo-2′-deoxyuridine (BrdU).
In brief, the BrdU-labeled DNA fragments of the samples were bound to the immobilized anti-DNA antibody, fixing it within the wells of a microtiter plate. The immune-complexed BrdU-labeled DNA fragments were then denatured and fixed to the surfaces of the plates via the application of microwave irradiation. In the final step, the anti-BrdU peroxidase conjugate was allowed to react with the BrdU that had been incorporated into the DNA. After the removal of the unbound peroxidase conjugates, the quantity of peroxidase bound within the immune complex was determined photometrically, using TMB as a substrate.

Molecule | release of intracellular Ca2+ ([1]; WKYMVm 10 nM) | DNA synthesis activity / proliferation ([3H]-thymidine incorporation) [2] | time of peak cyclin D1 expression [3] [h] | activation of ERK and Akt ([3]; WKYMVm 1 to 1000 nM) | vessels in Matrigel (stained sections) [4] | DNA synthesis activity / proliferation ([3H]-thymidine incorporation) [5] | serum starvation-induced apoptosis (MTT assay, DNA fragmentation ELISA) [6] | increase in intracellular Ca2+ compared to basal levels ([1]; RA FLS, SAA 3 μM) [fold] | cell numbers [2] | concentration of maximal effect on DNA synthesis [2] [µM] | earliest detectable ERK1/2 and Akt phosphorylation after stimulation ([3]; 3 μM SAA) [min] | mean hemoglobin content of Matrigels ([4]; SAA 80 μg in Matrigel s.c.) [g/dL] | cell numbers [5] | concentration of maximal effect on DNA synthesis [5] [µM] | DNA fragmentation induced by SNP (0.7 mM) or anti-Fas (0.7 μg/ml) plus CHX (1 μg/ml) ([6]; SAA 3 μM, 12 h)
WKYMVm: specific agonist peptide for FPRL1, SEQ ID NO:5 (WKYMV[dM]; listed as Homo sapiens) | mimicked | dose-dependent increase | 4 | dose and time-dependent activation | more vessels | not OA FLS | mitigating starvation-induced cell death |  |  |  |  |  |  |  | 
B1 |  | increased in a dose-dependent fashion | 4 |  | more vessels | increased in a dose-dependent fashion | dose-dependent inhibition | 2.3 | dose-dependently increased | 5 | 1 | 4.90 ± 0.66 | dose-dependently increased | 5 | blocked almost completely
